The values that follow come from patent US20050058639A1 (AstraZeneca / MedImmune, published 2005).

Where only a bound is given, the exact number is not on record here.

Assay [1] deals with T1, recombinant mouse JE/MCP-1 (mouse, UniProt P10148 24-148).
T1 construct: also called rmJE/MCP-1
Put plainly: ELISA, coated antigen. The method in brief: (§1)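 Plates coated overnight at 4° C with MCP-1, MCP-2, MCP-3, MCP-4, RANTES, GRO-alpha, MIP-1 alpha, eotaxin, rat MCP-1 or mouse JE (2 μg/ml, carbonate buffer pH 9.6), blocked with BSA. Hybridoma supernatants bound 2 hours at room temperature; TMB colour developed about 10 minutes.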

The target in assay [2] is rat MCP-1 (rat, UniProt P14844 24-148). Put plainly: ELISA, coated antigen. In a few lines:
as §1

Assay [3] deals with T2, recombinant human MCP-2 (human, UniProt P80075 24-99).
T2 construct: also called rhMCP-2
T2 sequence (looked up): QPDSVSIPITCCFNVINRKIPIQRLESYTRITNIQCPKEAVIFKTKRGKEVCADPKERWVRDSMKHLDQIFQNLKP
Description: ELISA, coated antigen. In a few lines:
as §1

The target in assay [4] is T3, recombinant human MCP-3 (human, UniProt P80098 24-99).
T3 construct: also called rhMCP-3
Put plainly: ELISA, coated antigen. In a few lines: as §1

Assay [5] concerns the target T4, recombinant human MCP-4 (human, UniProt Q99616 24-98, limits assumed).
T4 construct: also called rhMCP-4
Description: ELISA, coated antigen. In a few lines:
as §1

For assay [6], the target named is T5, human GRO/MGSA (human, UniProt P09341 35-107).
T5 construct: also called hGRO/MGSA; GRO-alpha
T5 sequence (looked up): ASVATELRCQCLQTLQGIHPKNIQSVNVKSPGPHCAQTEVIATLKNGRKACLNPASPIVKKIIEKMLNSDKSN
Put plainly: ELISA, coated antigen. In a few lines:
as §1

Assay [7] concerns the target T6, human MIP-1-alpha (human, UniProt P10147 24-92, limits assumed).
T6 construct: also called hMIP-1-alpha
T6 sequence (looked up): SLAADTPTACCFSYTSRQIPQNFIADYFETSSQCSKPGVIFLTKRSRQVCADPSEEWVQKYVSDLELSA
Description: ELISA, coated antigen. In a few lines: as §1

Assay [8] concerns the target T7, human RANTES (human, UniProt P13501 24-91).
T7 construct: also called hRANTES
T7 sequence (looked up): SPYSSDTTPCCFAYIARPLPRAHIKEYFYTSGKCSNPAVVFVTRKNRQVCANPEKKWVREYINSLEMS
Put plainly: ELISA, coated antigen. In a few lines: as §1

Assay [9] concerns the target T8, human eotaxin (human, UniProt P51671 24-97).
T8 construct: also called hEotaxin
Description: ELISA, coated antigen. The method in brief: as §1

In assay [10] the target is T9, human monocyte chemo-attractant protein-1 (MCP-1) (human, UniProt P13500 24-99). Description: cell-based or functional assay.
The target of assay [11] is T9, human monocyte chemo-attractant …. Put plainly: Biacore, mAb immobilized, MCP-1 injected; Biacore, 25 C, native MCP-1 injected over immobilized mAb. The procedure: Determination of anti-MCP-1 antibody affinity using Biacore analysis. The antibody/MCP-1 interaction analysis was performed at 25° C. using two CM5 chips docked in Biacore 3000 optical biosensors. Individual flow cells on each chip were activated with a 7-minute injection of NHS/EDC, carbohydrazide was coupled through the NHS ester using a 7-minute injection, and the residual activated groups were blocked with a 7-minute injection of ethanolamine. The monosaccharide residues of each antibody were oxidized using 1 mM sodium metaperiodate in 100 mM sodium acetate, pH 5.5 at 4° C. for 30 minutes. The oxidized antibody was desalted into 100 mM sodium acetate, pH 5.0, to couple the antibody to the carbohydrazide-modified surface. The mAb surfaces were stabilized by reducing the hydrazone bond with 0.1 M sodium cyanoborohydride. The antigen/antibody interaction was tested by injecting 0, 0.049, 0.15, 0.4, 1.3, 4 and 12 nM of MCP-1 (Peprotech, N.J.) in running buffer (10 mM HEPES, 150 mM NaCl, 0.005% surfactant, 200 μg/ml BSA, pH 7.4). The surfaces were regenerated with a 12-second pulse of 15 mM H₃PO₄. The antigen/antibody interaction was tested by injecting duplicate antigen samples diluted in running buffer (10 mM HEPES, […], 0.005% surfactant, 200 μg/mL BSA, pH 7.4), in a 300-fold concentration range. The surfaces were regenerated with a 12-second pulse of 15 mM H₃PO₄. To determine the kinetics of each interaction, the data sets were fit globally to a 1:1 interaction model that included a parameter for mass transport.

Assay [12] has the same target. Put plainly: ELISA, coated antigen; ELISA, purified clone 1:50 on coated hMCP-1 (2 ug/mL), cross-reactivity panel. On the procedure:
Determining cross-reactivity of anti-MCP-1 antibodies with other chemokines. ELISA plates (Fisher Cat. No. 12-565-136) were coated with 50 μl/well of MCP-1, MCP-2, MCP-3, MCP-4, RANTES, GRO-alpha, MIP-1 alpha, eotaxin, rat MCP-1 and mouse JE (2 μg/ml) in coating buffer (0.1 M carbonate buffer, pH 9.6, NaHCO₃ 8.4 g/L, then incubated at 4° C. overnight. After incubation, the plates were washed with washing buffer (0.05% Tween 20 in PBS) three times. 200 μL/well blocking buffer (0.5% BSA, 0.1% Tween 20, 0.01% Thimerosal in 1×PBS) were added and the plates incubated at room temperature for 1 hour. After incubation, the plates were washed with washing buffer three times. 50 μL/well of hybridoma supernatants, and positive and negative controls (positive control was anti-MCP-1 antibody purchased from R&D Sciences, and negative control was an antibody to Keyhole Limpet Hemocyanin produced at Abgenix) were added and the plates incubated at room temperature for 2 hours. After incubation, the plates were washed three times with washing buffer. […] After incubation, the plates were washed three times with washing buffer and 100 μL/well of TMB (BioFX Lab. Cat. #TMSK-0 100-01) was added and the plates allowed to develop for about 10 minutes.

The target is the same in assay [13]. Put plainly: ELISA, hybridoma supernatant on coated MCP-1; ELISA, hybridoma supernatant on plate-coated non-reduced MCP-1 (2 ug/mL). The procedure: Selection of candidate antibodies for ELISA. After 14 days of culture, hybridoma supernatants were screened for MCP-1-specific monoclonal antibodies. The ELISA plates (Fisher, Cat. No. 12-565-136) were coated with 50 μl/well of MCP-1 (2 μg/mL) in Coating Buffer (0.1 M Carbonate Buffer, pH 9.6, NaHCO₃8.4 g/L), then incubated at 4° C. overnight. After incubation, the plates were washed with Washing Buffer (0.05% Tween 20 in PBS) three times. 200 μl/well Blocking Buffer (0.5% BSA, 0.1% Tween 20, 0.01% Thimerosal in 1× PBS) were added and the plates incubated at room temperature for 1 hour. After incubation, the plates were washed with Washing Buffer three times. 50 μL/well of hybridoma supernatants, and positive and negative controls were added and the plates incubated at room temperature for 2 hours.
The positive control used throughout was XMG2 MCP-1 Group 1, footpad N160-7 and the negative control was XMG2 KLH Group 1, footpad L627-6. After incubation, the plates were washed three times with Washing Buffer. […] In the secondary screen, three sets of samples (positives in first screening) were screened, one set for hIgG detection, one set for hKappa detection, and one set for hlambda detection. After incubation, the plates were washed three times with Washing Buffer. 100 μL/well of TMB (BioFX Lab. Cat. #TMSK-0100-01) were added and the plates allowed to develop for about 10 minutes (until negative control wells barely started to show color), then 50 μL/well stop solution (TMB Stop Solution (BioFX Lab. Cat. #STPR-0100-01) were added and the plates read on an ELISA plate reader at wavelength 450 nm. The OD readings from the positive wells are presented in Table 9.

T9 sequence (P13500 24-99): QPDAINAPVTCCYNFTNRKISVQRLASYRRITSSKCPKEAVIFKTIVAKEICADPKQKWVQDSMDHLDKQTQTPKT
T3 sequence (P80098 24-99 limits assumed): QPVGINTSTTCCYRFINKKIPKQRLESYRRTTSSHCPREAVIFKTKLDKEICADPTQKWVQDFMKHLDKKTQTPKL
T4 sequence (Q99616 24-98 limits assumed): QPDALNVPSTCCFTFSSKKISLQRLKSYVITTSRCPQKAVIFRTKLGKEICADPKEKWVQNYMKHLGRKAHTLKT
T8 sequence (P51671 24-97 limits assumed): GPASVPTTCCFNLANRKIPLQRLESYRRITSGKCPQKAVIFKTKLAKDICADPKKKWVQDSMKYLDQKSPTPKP
T1 sequence (P10148 24-148 limits assumed): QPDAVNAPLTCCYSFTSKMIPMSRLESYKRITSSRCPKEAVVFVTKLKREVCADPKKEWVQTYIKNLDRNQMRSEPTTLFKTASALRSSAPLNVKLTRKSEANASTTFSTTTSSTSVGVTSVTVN
rat MCP-1, sequence (P14844 24-148 limits assumed): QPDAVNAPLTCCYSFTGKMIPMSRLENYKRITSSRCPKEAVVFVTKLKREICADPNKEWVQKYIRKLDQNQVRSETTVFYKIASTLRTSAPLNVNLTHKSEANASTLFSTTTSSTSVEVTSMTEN

B1: anti-MCP-1 mAb 2.4.1 (antibody, V domains shown)
VH: QVQLVQSGAEVKKPGASVKVSCKASGYTFTGYYLHWVRQAPGQGLEWMGWINPYNDGTNYAQKFQGRVTMTRDTSISTAYMELSRLRSDDTAVYYCARDIAAAGAVYFDYWGQGTLVTVSS
VL: DIQMTQSPSSLSASVGDRVTITCQASQDITTYLNWYQQKPGKAPKLLIYDASNLETGVPSRFSGSGSGTDFTFTISSLQPEDIATYYCQQYDNLPITFGQGTRLEIKR
Regarding B1, the “ELISA OD” value in assay [1] worked out at 0.129 OD450; in assay [2] it was 0.077 OD450; in assay [3] it was 0.045 OD450; in assay [4], 0.066 OD450; in assay [5], 0.06 OD450; in assay [6], 0.048 OD450. For the same molecule, the “ELISA OD” value in assay [7] was determined as 0.061 OD450; in assay [8] it was 0.046 OD450; in assay [9], 0.084 OD450; in [12], 0.462 OD450. Further, the “IC50 Ca++ Flux” value in [10] was determined as 0.26 µg/mL. In addition, the “IC50 Chemotaxis” value in assay [10] is greater than 5 µg/mL. Moreover, the Kd in assay [11] was 0.014 nM. The “ELISA OD-MCP-1” value in [13] is 3.89 OD450.

B2: anti-MCP-1 mAb 3.5.1 (antibody, V domains shown)
VH: QVQLVQSGAEVKKPGASVKVSCKVSGYTLSELSMHWVRQAPGKGLEWMGGFDPEDDETIYAQKFQGRVTMTEDTSTDTAFMELSSLRSEDTAVYYCATHDFWSGYFHYWGQGTLVTVSS
VL: DIVMTQSPDSLAVSLGERATINCKSSQSVLYSSDNKSYLVWYQQKPGQPPKVLIYWASIRESGVPDRFSGSGSGTDFTLTISSLQAEDVAVYYCQQYYTSPWTFGQGTKVEIKR
As for B2, the “ELISA OD” value in assay [1] is 0.042 OD450; in assay [2], 0.053 OD450; in assay [3], 0.042 OD450; in assay [4], 0.045 OD450; in [5] it was 0.044 OD450; in assay [6], 0.048 OD450. Also, the “ELISA OD” value in assay [7] stood at 0.047 OD450; in assay [8] it was 0.044 OD450; in [9], 0.043 OD450; in assay [12], 0.194 OD450. Moreover, the “IC50 Ca++ Flux” value in assay [10] came out at 0.58 µg/mL. Also, in assay [10], the “IC50 Chemotaxis” value was determined as 3.1 µg/mL. Binding in assay [11] was characterised by a dissociation constant (Kd) of 0.1 nM. In addition, the “ELISA OD-MCP-1” value in assay [13] was found to be 3.77 OD450.

B3: anti-MCP-1 mAb 3.6.1 (antibody, V domains shown)
VH: QVQLVQSGAEVKKPGASVKVSCKVSGYTLTELSMHWVRQAPGKGLEWMGGFDPEDGETIYAQKFQGRVTMTEDTSTDTAYMELSSLRSEDTAVYYCAIHEFWSGYFDYWGQGTLVTVSS
VL: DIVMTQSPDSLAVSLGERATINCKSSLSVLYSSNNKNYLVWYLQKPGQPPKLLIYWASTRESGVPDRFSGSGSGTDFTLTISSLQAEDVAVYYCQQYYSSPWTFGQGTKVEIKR
Regarding B3, the “ELISA OD” value in assay [1] came out at 0.047 OD450; in assay [2] it was 0.046 OD450; in assay [3], 0.052 OD450; in [4], 0.045 OD450; in [5] it was 0.048 OD450; in assay [6], 0.047 OD450. For the same molecule, the “ELISA OD” value in assay [7] amounted to 0.047 OD450; in assay [8], 0.043 OD450; in assay [9], 0.043 OD450; in assay [12], 0.342 OD450. Moreover, the “IC50 Ca++ Flux” value in [10] amounted to 0.17 µg/mL. Besides, the “IC50 Chemotaxis” value in assay [10] stood at 0.52 µg/mL. For the same molecule, the Kd in assay [11] came to 0.015 nM. In addition, the “ELISA OD-MCP-1” value in assay [13] was 3.59 OD450.

B4: anti-MCP-1 mAb 1.9.1 (antibody, V domains shown)
VH: QVQLVQSGAEVKKPGASVKVSCKVSGYTLTELSMHWVRQAPGKGLEWMGGFDPEDGETINAQKFQGRVTMTEDTSTDTGYMELSSLRSEDTAVYYCATDPGGYSGYFDHWGQGTLVTVSS
VL: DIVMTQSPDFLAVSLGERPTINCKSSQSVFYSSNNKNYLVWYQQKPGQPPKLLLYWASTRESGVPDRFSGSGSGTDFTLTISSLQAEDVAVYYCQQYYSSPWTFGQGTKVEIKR
As to B4, the “ELISA OD” value in assay [1] was 0.053 OD450; in assay [2], 0.065 OD450; in [3], 0.04 OD450; in assay [4], 0.044 OD450; in [5], 0.042 OD450; in [6], 0.043 OD450. Besides, the “ELISA OD” value in [7] amounted to 0.044 OD450; in assay [8] it was 0.042 OD450; in assay [9], 0.042 OD450; in assay [12], 0.446 OD450. Besides, the “IC50 Ca++ Flux” value in assay [10] came to 1.2 µg/mL. The “IC50 Chemotaxis” value in assay [10] stood at 35 µg/mL. For the same molecule, binding in [11] was put at a Kd of 0.096 nM. In assay [13], the “ELISA OD-MCP-1” value was 3.66 OD450.

B5: anti-MCP-1 mAb 3.8 (antibody, V domains shown)
VH: QVQLVQSGAEVKKPGASVKVSCKVSGYTLTELSMHWVRQAPGKGLEWMGGFDPENGETIHAQKFQGRVIMTEDTSTDTAYMELSSLRSEDTAVYYCATDQGGYSGYFDCWGQGTLVTVSS
VL: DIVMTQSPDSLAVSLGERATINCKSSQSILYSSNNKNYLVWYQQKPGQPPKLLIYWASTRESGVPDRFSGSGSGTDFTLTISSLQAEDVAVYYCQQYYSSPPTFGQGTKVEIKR
notes: also called 3.8.1
As to B5, the “ELISA OD” value is 0.042 OD450 in [1]; 0.062 OD450 in [2]; 0.042 OD450 in [3]; 0.046 OD450 in [4]; 0.044 OD450 in [5]; 0.046 OD450 in assay [6]. Further, the “ELISA OD” value in assay [7] is 0.046 OD450; in [8] it was 0.046 OD450; in assay [9], 0.042 OD450; in assay [12] it was 0.275 OD450. Moreover, the “IC50 Ca++ Flux” value in [10] came to 0.27 µg/mL. Besides, the “IC50 Chemotaxis” value in [10] was 0.7 µg/mL. In assay [11], this molecule gave a Kd of 0.0034 nM. Further, the “ELISA OD-MCP-1” value in [13] was determined as 3.6 OD450.
